This is an account of results in US20240254220A1 (CENTRICSBIO, published 2024).

Assay [1] concerns the target T1, CD300c antigen (11832-H08H, Sino Biological) (human, UniProt Q08708 21-183).
T1 construct: Bought antigen; also called CD300c protein; CD300 antigen-like family member C
T1 sequence (looked up): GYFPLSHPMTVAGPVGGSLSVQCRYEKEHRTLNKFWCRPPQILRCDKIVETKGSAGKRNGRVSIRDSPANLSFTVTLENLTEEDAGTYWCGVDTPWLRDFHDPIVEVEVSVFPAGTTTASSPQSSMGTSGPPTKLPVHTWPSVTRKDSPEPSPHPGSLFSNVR
The experiment in a line: SPR, CD300c immobilised on the chip (399.2 RU), CL7 as analyte at 0-6.25 µg/mL; CD300c on the chip, CL7 as analyte. As for the experimental part: In order to identify the binding affinity between the antigen CD300c and the anti-CD300c monoclonal antibody CL7, a surface plasmon resonance experiment was performed.
To immobilize CD300c on a […], 5 μg/mL of CD300c was diluted in 10 mM acetate buffer (pH 5.5). Then, the flow rates were all set equally to […], and the target RU was respectively set to 300 RU. […] by a mixture of 0.2 M EDC and 0.05 M NHS, and blocked with 1 M ethanolamine to perform the immobilization so that the final RU of CD300c became 399.2 RU. Then, CL7 was diluted in PBSP to concentrations of 0, 0.195, 0.39, 0.78, 1.56, 3.125, and 6.25 μg/mL, separately. […] Subsequently, 50 mM NaOH was allowed to flow at a rate of 30 μL/min for 30 seconds to regenerate the surface.

In assay [2] the target is T2, CD300c on the surface of cells (human, UniProt Q08708 21-224).
T2 construct: whole, on cells; also called cellular antigen
T2 sequence (looked up): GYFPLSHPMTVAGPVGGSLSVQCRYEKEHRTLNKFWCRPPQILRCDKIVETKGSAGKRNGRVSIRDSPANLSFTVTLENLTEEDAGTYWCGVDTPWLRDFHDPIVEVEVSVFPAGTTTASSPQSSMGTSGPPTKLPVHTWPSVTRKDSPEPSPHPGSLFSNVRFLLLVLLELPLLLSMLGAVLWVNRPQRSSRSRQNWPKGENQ
The experiment in a line: flow cytometry (FACS binding) on 293T cells overexpressing CD300c, FITC anti-human IgG (H+L), MFI. As for the experimental part:
In order to identify whether the anti-CD300c monoclonal antibody (CL7) recognizes a cellular antigen, FACS binding was performed.
Then, the cells were incubated with the anti-CD300c monoclonal antibody, which was serially diluted 3-fold starting from 10 μg/mL, in a CO₂ incubator for 30 minutes, and washed twice with FACS buffer. Then, the cells were incubated with FITC-conjugated anti-human IgG (H+L), which was diluted 1:100 in FACS buffer, in a CO₂ incubator for 30 minutes, and washed twice with FACS buffer. Subsequently, FITC signals were measured with a CytoFLEX instrument manufactured by Beckman Coulter, Inc., and then the MFI values were obtained using CytExpert program.

In assay [3] the target is T3, mouse CD300c (mouse).
T3 sequence (A2A7V7 whole entry, looked up): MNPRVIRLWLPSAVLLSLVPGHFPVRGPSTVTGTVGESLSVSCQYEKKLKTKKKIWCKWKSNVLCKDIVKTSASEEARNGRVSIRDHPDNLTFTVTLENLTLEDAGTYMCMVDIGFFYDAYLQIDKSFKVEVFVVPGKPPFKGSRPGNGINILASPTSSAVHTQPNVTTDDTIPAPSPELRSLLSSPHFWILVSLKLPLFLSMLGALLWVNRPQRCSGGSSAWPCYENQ
Kind of assay: cell-based or functional assay.

For assay [4], the target named is T1, CD300c antigen (11832-H08H, Sino …). The experiment in a line: binding ELISA, plate coated with CD300c antigen (8 µg/mL), HRP anti-Fc IgG detection. As for the experimental part:
In order to identify the antigen-binding ability of the anti-CD300c monoclonal antibodies produced in Example 1, binding ELISA was performed. Specifically, a CD300c antigen (11832-H08H, Sino Biological) or a CD300a antigen (12449-H08H, Sino Biological) in a coating buffer (0.1 M sodium carbonate, pH 9.0) was dispensed into an ELISA plate at a concentration of 8 μg/mL per well, followed by incubation at room temperature for 3 hours to allow the antigen to be bound to the plate. The unbound antigens were removed by washing three times using phosphate buffered saline-Tween 20 (PBST), and then 300 μL of PBST supplemented with 5% bovine serum albumin (BSA) was added to each well, followed by incubation at room temperature for 1 hour and then washing using PBST. Then, an anti-CD300c monoclonal antibody was diluted in quadruplicate and added thereto, followed by incubation for 1 hour at room temperature for antigen binding. After 1 hour, washing was performed three times using PBST to remove unbound anti-CD300c monoclonal antibody, and then 4 μg/mL of an antibody for detection (HRP conjugated anti-Fc IgG) was added, followed by incubation again at room temperature for 1 hour. Subsequently, the unbound antibody for detection was removed using PBST, and then TMB solution was added, followed by incubation for 10 minutes for development. Then, 2 N sulfuric acid solution was added to terminate the development reaction, and the absorbance was measured at 450 nm to identify the antibodies specifically binding to the CD300c antigen.

The target is the same in assay [5]. The experiment in a line: binding ELISA on coated CD300c antigen (800 ng/mL), anti-Fc secondary antibody, 450 nm (Experimental Example 2.3). As for the experimental part: CD300c antigen (250 ug/mL) was diluted to a concentration of 800 ng/mL in coating buffer (0.1 M sodium carbon ate, pH 9.0), placed into a 96-well microplate at 100 μL per well, and incubated at 4° C. overnight. The next day, the microplate was washed three times with 200 μL of PBST. Thereafter, 200 μL of a blocking buffer (5% skim milk) was added thereto, followed by blocking at room temperature for 1 hour. The anti-CD300c monoclonal antibody CL7 was diluted to 200 μg/mL in PBS, and the concentration thereof was checked by measurement using Nanodrop (product name: NanoDrop One/One, manufactured by Thermo Fisher Scientific). Subsequently, CL7 was diluted in quadruplicate with PBS starting from 10 μg/mL, and added at 100 μL each, followed by incubation at room temperature for 1 hour. After the incubation, the microplate was washed three times with […] of PBST. A secondary antibody (conjugated anti-Fc IgG) was diluted 1:10,000 in blocking buffer, and added at 100 μL, followed by incubation at room temperature for 1 hour, and then washed three times with 200 μL of PBST. Subsequently, TMB and hydrogen peroxide were mixed 1:1, and added at 100 μL per well, followed by incubation at room temperature for 7 to 9 minutes.

B1: CL7 (antibody, V domains shown)
VH: EVQLLESGGGLVQPGGSLRLSCAASGFTFSRYAMSWVRQAPGKGLEWVSAISGSGGSTYYADSVKGRFTISRDNSKNTLYLQMNSLRAEDTAVYYCARSSQGIFDIWGQGTLVTVSS
VL: QSVLTQPPSASGTPGQRVTISCSGNNIGTRRVHWYQQLPDTAPKLLIYSKNNRPSGVPDRFSGSKSGTSASLAISGLRSEDEADYYCAAWDDSLSGPVFGGGTKLTVL
notes: detected with anti-human IgG (H+L) and anti-Fc IgG; also called anti-CD300c monoclonal antibody CL7; anti-CD300c monoclonal antibody (CL7)
In assay [1], B1 had a Kd of 0.52 nM. Moreover, the EC50 in assay [2] is 2.7 nM; in assay [4], 0.047 µg/mL. The “cancer cell proliferation inhibitory effect, CT26 mouse colon cancer cells, 10 ug/mL antibody, 5 days, CCK-8” value in assay [3] amounted to 66%. For the same molecule, in assay [5], the “EC50 (read off the curve)” value was approximately 0.06 µg/mL.
